Measurements: paper PMC3510010
Read-outs that look alike come from different tables or passages of the source.

What was measured:
Assay in all cases: F-EMSA
[1] = target: POS-1-RBD (80-180) (Caenorhabditis elegans, UniProt G5EF15 80-180)
[2] = target: T1, SPN-4-RBD (Caenorhabditis elegans, UniProt G5EF02 50-135)
T1 sequence: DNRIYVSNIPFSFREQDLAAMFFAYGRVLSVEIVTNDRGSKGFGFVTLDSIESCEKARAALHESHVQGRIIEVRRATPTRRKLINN

[3] = target: T2, GLD-1(135-336) (Caenorhabditis elegans, UniProt Q17339 135-336)
T2 sequence: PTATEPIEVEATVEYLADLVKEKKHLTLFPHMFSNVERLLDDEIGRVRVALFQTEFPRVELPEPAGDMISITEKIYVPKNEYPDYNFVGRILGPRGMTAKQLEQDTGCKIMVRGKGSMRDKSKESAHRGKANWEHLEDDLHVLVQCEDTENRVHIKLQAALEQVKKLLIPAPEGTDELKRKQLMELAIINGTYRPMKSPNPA

[4] = target: T3, POS-1(1-206) (Caenorhabditis elegans, UniProt G5EF15 1-206)
[5] = target: T2, GLD-1(135-336); remark: listed apart in the source
[6] = target: T3, POS-1(1-206); remark: listed apart in the source
[7] = target: T3, POS-1(1-206); remark: listed apart in the source
[8] = target: T3, POS-1(1-206); remark: listed apart in the source
[9] = target: T2, GLD-1(135-336); remark: listed apart in the source

T3 sequence (G5EF15 1-206): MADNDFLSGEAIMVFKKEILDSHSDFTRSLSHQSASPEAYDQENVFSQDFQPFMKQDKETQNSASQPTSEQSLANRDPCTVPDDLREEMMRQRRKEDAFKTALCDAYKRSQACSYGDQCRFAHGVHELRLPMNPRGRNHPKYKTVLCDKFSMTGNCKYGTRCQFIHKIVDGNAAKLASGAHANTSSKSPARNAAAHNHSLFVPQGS
Chain of POS-1-RBD (80-180) (G5EF15 80-180): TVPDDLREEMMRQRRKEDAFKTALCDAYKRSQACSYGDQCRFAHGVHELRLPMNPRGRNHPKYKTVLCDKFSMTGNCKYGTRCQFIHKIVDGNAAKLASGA

UUUUUCUUAUUCUAGACUAAUAUUGUAAGCU (ssRNA) [glp-1 WT]
Kd [1]: 30 ± 17 nM
binding result [2]: no binding
Kd [3]: 70 ± 10 nM
Kd [4]: 19 ± 2 nM

UUUUUCUUAUUCUAGACUAACCCUGUAAGCU (ssRNA) [∆3′ PRE]
Kd [5]: 25 ± 3 nM
Kd [6]: 53 ± 1 nM

UUUUUCUCCCUCUAGACUAAUAUUGUAAGCU (ssRNA) [∆5′ PRE]
Kd [5]: 33 ± 7 nM
Kd [7]: 55 ± 4 nM

UUUUUCUUAUUCUAGACCAAUAUUGUAAGCU (ssRNA) [∆GBM]
Kd [8]: 21 ± 1 nM

UUUUUCUCCCUCUAGACUAACCCUGUAAGCU (ssRNA) [∆5′ 3′ PRE]
Kd [8]: 310 ± 20 nM
Kd [9]: 20 ± 3 nM
